Assay results taken from patent publication US20040018971A1 (published 2004).

Tests used:
[1] = target: T1, HLA-A*2401 (human); assay: inhibition of 125I-labelled standard peptide binding to purified HLA, gel filtration
T1 construct: Purified HLA class I molecule (kind: MHC class I); also called A*2402

[2] = target: HLA-A*1101 (human); assay: competitive inhibition of 125I-labeled probe peptide binding to purified HLA-A*1101, gel filtration
[3] = target: HLA-A*1101 (human); assay: inhibition of 125I-labelled probe peptide binding to purified HLA-A*1101, gel filtration; relative to standard peptide 940.06
[4] = target: T2, HLA-A*1101 (purified HLA class I molecule) (human); assay: competition vs 125I standard peptide, purified HLA
T2 construct: Purified MHC molecule

[5] = target: HLA-A*0301 (purified HLA class I molecule) (human); assay: competition vs 125I standard peptide, purified HLA
[6] = target: T3, HLA-A*0301 (purified HLA class I molecule) (human); assay: inhibition of 125I probe peptide binding to purified HLA; ratio to standard peptide
T3 construct: also called A3

[7] = target: HLA-A*1101 (purified HLA class I molecule) (human); assay: as above

AYSLTLQGL (also called Her2/neu.440 (9-mer)) [HER2/neu peptide, position 440, 9 amino acids] was tested, and the relative binding ratio [1] was 0.13 ratio (IC50 of standard peptide / IC50 of test peptide).

With AFGTVYKGI (also called Her2/neu.730 (9-mer)) [HER2/neu peptide, position 730, 9 amino acids] the relative binding ratio [1] was 0.0002 ratio (IC50 of standard peptide / IC50 of test peptide).

With AFSPAFDNL (also called Her2/neu.1212 (9-mer)) [HER2/neu peptide, position 1212, 9 amino acids] the relative binding ratio [1] was 0.0011 ratio (IC50 of standard peptide / IC50 of test peptide).

In the case of AFGTVYKGIWI (also called Her2/neu.730 (11-mer)) [HER2/neu peptide, position 730, 11 amino acids], the relative binding ratio [1] is reported as 0.0008 ratio (IC50 of standard peptide / IC50 of test peptide).

With CVARCPSGVK [HER2/neu peptide, position 596, 10 amino acids] the relative binding ratio [2] was 0.0042 ratio (IC50 of standard peptide / IC50 of test peptide).

EFAGCKKIF (also called Her2/neu.363 (9-mer)) [HER2/neu peptide, position 363, 9 amino acids] was tested, and the relative binding ratio [1] was 0.0003 ratio (IC50 of standard peptide / IC50 of test peptide).

In the case of CSKPCARVCY [HER2/neu peptide, position 334, 10 amino acids], the relative binding ratio [2] is reported as 0.0002 ratio (IC50 of standard peptide / IC50 of test peptide).

For MALESILRRR (also called HER2/neu 889-898) [HER2/neu A11 motif peptide, position 889, 10 amino acids], the relative binding ratio [3] was 0.0003 ratio (IC50 of standard peptide / IC50 of test peptide).

For LVHRDLAAR (also called HER2/neu 841-849) [HER2/neu A11 motif peptide, position 841, 9 amino acids], the relative binding ratio [3] was 0.0014 ratio (IC50 of standard peptide / IC50 of test peptide).

With LACHQLCAR [HER2/neu peptide, position 509, 9 amino acids] the relative binding ratio [4] was 0.0003 ratio (IC50 standard/IC50 test) and the relative binding ratio [5] was -0.0002 ratio (IC50 standard/IC50 test).

With EVTAEDGTQR (also called Her2/neu.321 (10-mer)) [HER2/neu peptide, position 321, 10 amino acids] the relative binding ratio [6] was 0.0002 ratio (IC50 standard / IC50 test) and the relative binding ratio [7] was 0.0001 ratio (IC50 standard / IC50 test).

For GILIKRRQQK (also called Her2/neu.672 (10-mer)) [HER2/neu peptide, position 672, 10 amino acids], the relative binding ratio [6] was 0.015 ratio (IC50 standard / IC50 test) and the relative binding ratio [7] was 0.0014 ratio (IC50 standard / IC50 test).

For EFAGCKKI (also called Her2/neu.363 (8-mer)) [HER2/neu peptide, position 363, 8 amino acids], the relative binding ratio [1] was -0.0003 ratio (IC50 of standard peptide / IC50 of test peptide).

In the case of CVNCSQFLR (also called Her2/neu.528) [HER2/neu peptide, position 528, 9 amino acids], the relative binding ratio [2] is reported as 0.031 ratio (IC50 of standard peptide / IC50 of test peptide).

With GLPREYVNAR (also called Her2/neu.549 (10-mer)) [HER2/neu peptide, position 549, 10 amino acids] the relative binding ratio [6] was 0.0002 ratio (IC50 standard / IC50 test) and the relative binding ratio [7] was 0.0003 ratio (IC50 standard / IC50 test).

For ASCVTACPY (also called Her2/neu.293) [HER2/neu peptide, position 293, 9 amino acids], the relative binding ratio [2] was 0.0074 ratio (IC50 of standard peptide / IC50 of test peptide).

In the case of LALTLIDTNR [HER2/neu peptide, position 179, 10 amino acids], the relative binding ratio [4] is reported as 0.0003 ratio (IC50 standard/IC50 test) and the relative binding ratio [5] is reported as -0.0002 ratio (IC50 standard/IC50 test).

For CAAGCTGPK [HER2/neu peptide, position 240, 9 amino acids], the relative binding ratio [2] was 0.0021 ratio (IC50 of standard peptide / IC50 of test peptide).

With AFDNLYYW (also called Her2/neu.1216 (8-mer)) [HER2/neu peptide, position 1216, 8 amino acids] the relative binding ratio [1] was 0.0039 ratio (IC50 of standard peptide / IC50 of test peptide).

With DLAARNVLVK (also called Her2/neu.845 (10-mer)) [HER2/neu peptide, position 845, 10 amino acids] the relative binding ratio [6] was 0.0018 ratio (IC50 standard / IC50 test) and the relative binding ratio [7] was 0.0007 ratio (IC50 standard / IC50 test).

For DFGLARLL (also called Her2/neu.863 (8-mer)) [HER2/neu peptide, position 863, 8 amino acids], the relative binding ratio [1] was 0.0005 ratio (IC50 of standard peptide / IC50 of test peptide).

For CFVHTVPW (also called Her2/neu.475 (8-mer)) [HER2/neu peptide, position 475, 8 amino acids], the relative binding ratio [1] was 0.019 ratio (IC50 of standard peptide / IC50 of test peptide).

For AMPNQAQMRI (also called Her2/neu.705 (10-mer)) [HER2/neu peptide, position 705, 10 amino acids], the relative binding ratio [1] was 0.0002 ratio (IC50 of standard peptide / IC50 of test peptide).

For GVGSPYVSR [HER2/neu peptide, position 776, 9 amino acids], the relative binding ratio [4] was 0.0066 ratio (IC50 standard/IC50 test) and the relative binding ratio [5] was 0.001 ratio (IC50 standard/IC50 test).

ETEYHADGGK (also called Her2/neu.874 (10-mer)) [HER2/neu peptide, position 874, 10 amino acids] was tested, and the relative binding ratio [6] was 0.0003 ratio (IC50 standard / IC50 test) and the relative binding ratio [7] was 0.0001 ratio (IC50 standard / IC50 test).

KIPVAIKVLR [HER2/neu peptide, position 747, 10 amino acids] was tested, and the relative binding ratio [4] was 0.0099 ratio (IC50 standard/IC50 test) and the relative binding ratio [5] was 0.0009 ratio (IC50 standard/IC50 test).

DVRPQPPSPR [HER2/neu peptide, position 1144, 10 amino acids] was tested, and the relative binding ratio [2] was 0.0001 ratio (IC50 of standard peptide / IC50 of test peptide).

In the case of AYSLTLQGLGI (also called Her2/neu.440 (11-mer)) [HER2/neu peptide, position 440, 11 amino acids], the relative binding ratio [1] is reported as 0.023 ratio (IC50 of standard peptide / IC50 of test peptide).

In the case of CSPMCKGSR [HER2/neu peptide, position 195, 9 amino acids], the relative binding ratio [2] is reported as -0.0001 ratio (IC50 of standard peptide / IC50 of test peptide).

With CTGTDMKLR [HER2/neu peptide, position 26, 9 amino acids] the relative binding ratio [2] was 0.0005 ratio (IC50 of standard peptide / IC50 of test peptide).

With AWPDSLPDL (also called Her2/neu.414 (9-mer)) [HER2/neu peptide, position 414, 9 amino acids] the relative binding ratio [1] was 0.0041 ratio (IC50 of standard peptide / IC50 of test peptide).

For MIDSECRPR [HER2/neu peptide, position 960, 9 amino acids], the relative binding ratio [4] was 0.0006 ratio (IC50 standard/IC50 test) and the relative binding ratio [5] was 0.0017 ratio (IC50 standard/IC50 test).
